{
  "source": "patent US20260250398A1",
  "about": "(ANTLERA THERAPEUTICS, published 2026)",
  "data": [
    {"molecular_target": "T1, LRP6 (low-density lipoprotein receptor-related protein 6) (UniProt O75581 20-1370, limits assumed)", "T1 sequence (looked up)": "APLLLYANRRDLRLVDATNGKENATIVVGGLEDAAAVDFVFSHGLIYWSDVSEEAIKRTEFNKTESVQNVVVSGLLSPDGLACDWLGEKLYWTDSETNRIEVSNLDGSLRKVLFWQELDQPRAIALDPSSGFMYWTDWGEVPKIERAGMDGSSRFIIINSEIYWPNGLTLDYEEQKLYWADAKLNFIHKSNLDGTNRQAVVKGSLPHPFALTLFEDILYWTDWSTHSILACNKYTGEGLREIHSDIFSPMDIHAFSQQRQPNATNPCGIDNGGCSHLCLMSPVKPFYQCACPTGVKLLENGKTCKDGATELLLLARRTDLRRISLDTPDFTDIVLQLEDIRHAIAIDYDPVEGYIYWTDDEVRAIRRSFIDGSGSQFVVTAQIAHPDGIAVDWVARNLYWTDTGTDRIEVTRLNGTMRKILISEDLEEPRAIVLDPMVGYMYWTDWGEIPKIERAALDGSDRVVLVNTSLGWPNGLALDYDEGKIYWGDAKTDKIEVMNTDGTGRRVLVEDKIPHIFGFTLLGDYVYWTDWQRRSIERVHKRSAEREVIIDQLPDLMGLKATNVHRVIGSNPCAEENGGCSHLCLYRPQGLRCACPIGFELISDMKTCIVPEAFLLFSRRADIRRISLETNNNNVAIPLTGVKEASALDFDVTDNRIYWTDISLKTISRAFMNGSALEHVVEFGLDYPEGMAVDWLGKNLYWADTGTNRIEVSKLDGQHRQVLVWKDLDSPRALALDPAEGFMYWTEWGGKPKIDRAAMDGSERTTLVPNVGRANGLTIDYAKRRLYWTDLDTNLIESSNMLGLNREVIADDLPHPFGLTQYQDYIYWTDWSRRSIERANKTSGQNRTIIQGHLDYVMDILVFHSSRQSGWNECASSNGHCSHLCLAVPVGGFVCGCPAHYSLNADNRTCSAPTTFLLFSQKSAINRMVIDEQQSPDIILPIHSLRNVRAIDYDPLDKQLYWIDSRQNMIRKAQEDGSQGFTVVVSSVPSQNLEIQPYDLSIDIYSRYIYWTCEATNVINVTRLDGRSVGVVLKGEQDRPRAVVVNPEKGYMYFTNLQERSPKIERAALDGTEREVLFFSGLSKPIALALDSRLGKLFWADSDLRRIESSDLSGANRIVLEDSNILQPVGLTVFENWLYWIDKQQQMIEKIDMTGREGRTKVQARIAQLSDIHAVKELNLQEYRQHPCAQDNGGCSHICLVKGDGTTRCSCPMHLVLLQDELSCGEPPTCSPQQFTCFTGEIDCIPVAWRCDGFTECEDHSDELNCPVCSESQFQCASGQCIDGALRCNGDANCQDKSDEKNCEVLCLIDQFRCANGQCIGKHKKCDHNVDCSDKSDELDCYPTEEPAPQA", "assay": "cell-based or functional assay", "units": {"TOPFLASH % Wnt Maxima": "% Wnt Maxima"}, "values": [
      {"binder": "CT0001 (FZD IgG-LRP Diabody; paratopes 5016; 2539, 2542) (bispecific antibody) heavy 1: EVQLVESGGGLVQPGGSLRLSCAASGFNIHSSSIHWVRQAPGKGLEWVAATYSSFGSITYADSVKGRFTISADTSKNTAYLQMNSLRAEDTAVYYCARYHHPFGYALDYWGQGTLVTVSSASTKGPSVFPLAPSSKSTSGGTAALGCLVKDYFPEPVTVSWNSGALTSGVHTFPAVLQSSGLYSLSSVVTVPSSSLGTQTYICNVNHKPSNTKVDKKVEPKSCDKTHTCPPCPAPELLGGPSVFLFPPKPKDTLMISRTPEVTCVVVDVSHEDPEVKFNWYVDGVEVHNAKTKPREEQYNSTYRVVSVLTVLHQDWLNGKEYKCKVSNKALPAPIEKTISKAKGQPREPQVYTLPPIRELMTSNQVSLSCAVKGFYPSDIAVEWESNGQPENNYKTTPPVLDSDGSFFLVSKLTVDKSRWQQGNVFSCSVMHEALHNHYTQKSLSLSPGKSGSETPGTSESATPESGGGEVQLVESGGGLVQPGGSLRLSCAASGFNISSYYIHWVRQAPGKGLEWVASIYSSYGYTSYADSVKGRFTISADTSKNTAYLQMNSLRAEDTAVYYCARTVRGSKKPYFSGWAMDYWGQGTLVTVSSGGGGSDIQMTQSPSSLSASVGDRVTITCRASQSVSSAVAWYQQKPGKAPKLLIYSASSLYSGVPSRFSGSRSGTDFTLTISSLQPEDFATYYCQQYSWGPFTFGQGTKVEIK heavy 2: EVQLVESGGGLVQPGGSLRLSCAASGFNIHSSSIHWVRQAPGKGLEWVAATYSSFGSITYADSVKGRFTISADTSKNTAYLQMNSLRAEDTAVYYCARYHHPFGYALDYWGQGTLVTVSSASTKGPSVFPLAPSSKSTSGGTAALGCLVKDYFPEPVTVSWNSGALTSGVHTFPAVLQSSGLYSLSSVVTVPSSSLGTQTYICNVNHKPSNTKVDKKVEPKSCDKTHTCPPCPAPELLGGPSVFLFPPKPKDTLMISRTPEVTCVVVDVSHEDPEVKFNWYVDGVEVHNAKTKPREEQYNSTYRVVSVLTVLHQDWLNGKEYKCKVSNKALPAPIEKTISKAKGQPREPMVFDLPPSREEMTKNQVSLWCMVKGFYPSDIAVEWESNGQPENNYKTTPPVLDSDGSFFLYSKLTVDKSRWQQGNVFSCSVMHEALHNHYTQKSLSLSPGKSGSETPGTSESATPESGGGEVQLVESGGGLVQPGGSLRLSCAASGFNISYSSIHWVRQAPGKGLEWVAYISSYYGYTYYADSVKGRFTISADTSKNTAYLQMNSLRAEDTAVYYCARAHYFPWAGAMDYWGQGTLVTVSSGGGGSDIQMTQSPSSLSASVGDRVTITCRASQSVSSAVAWYQQKPGKAPKLLIYSASSLYSGVPSRFSGSRSGTDFTLTISSLQPEDFATYYCQQYYWPITFGQGTKVEIK light: DIQMTQSPSSLSASVGDRVTITCRASQSVSSAVAWYQQKPGKAPKLLIYSASSLYSGVPSRFSGSRSGTDFTLTISSLQPEDFATYYCQQGVYLFTFGQGTKVEIKRTVAAPSVFIFPPSDEQLKSGTASVVCLLNNFYPREAKVQWKVDNALQSGNSQESVTEQDSKDSTYSLSSTLTLSKADYEKHKVYACEVTHQGLSSPVTKSFNRGEC", "TOPFLASH % Wnt Maxima": 57},
      {"binder": "CM0011 (FZD Diabody-Fc-LRP Diabody; paratopes 5019; 2539, 2542) (bispecific antibody) chain 1: MNLLLILTFVAAAVAEFEVQLVESGGGLVQPGGSLRLSCAASGFNIGSSSIHWVRQAPGKGLEWVASIYSAFASTSYADSVKGRFTISADTSKNTAYLQMNSLRAEDTAVYYCARYHFPFGFALDYWGQGTLVTVSSGGGGSDIQMTQSPSSLSASVGDRVTITCRASQSVSSAVAWYQQKPGKAPKLLIYSASSLYSGVPSRFSGSRSGTDFTLTISSLQPEDFATYYCQQGVYLFTFGQGTKVEIKLEDKTHTKVEPKSSDKTHNCPPCPAPELLGGPSVFLFPPKPKDTLMISRTPEVTCVVVDVSHEDPEVKFNWYVDGVEVHNAKTKPREEQYNSTYRVVSVLTVLHQDWLNGKEYKCKVSNKALPAPIEKTISKAKGQPREPQVYTLPPIRELMTSNQVSLSCAVKGFYPSDIAVEWESNGQPENNYKTTPPVLDSDGSFFLVSKLTVDKSRWQQGNVFSCSVMHEALHNHYTQKSLSLSPGKSGSETPGTSESATPESGGGEVQLVESGGGLVQPGGSLRLSCAASGFNISSYYIHWVRQAPGKGLEWVASIYSSYGYTSYADSVKGRFTISADTSKNTAYLQMNSLRAEDTAVYYCARTVRGSKKPYFSGWAMDYWGQGTLVTVSSGGGGSDIQMTQSPSSLSASVGDRVTITCRASQSVSSAVAWYQQKPGKAPKLLIYSASSLYSGVPSRFSGSRSGTDFTLTISSLQPEDFATYYCQQYSWGPFTFGQGTKVEIK chain 2: MNLLLILTFVAAAVAEFEVQLVESGGGLVQPGGSLRLSCAASGFNIGSSSIHWVRQAPGKGLEWVASIYSAFASTSYADSVKGRFTISADTSKNTAYLQMNSLRAEDTAVYYCARYHFPFGFALDYWGQGTLVTVSSGGGGSDIQMTQSPSSLSASVGDRVTITCRASQSVSSAVAWYQQKPGKAPKLLIYSASSLYSGVPSRFSGSRSGTDFTLTISSLQPEDFATYYCQQGVYLFTFGQGTKVEIKLEDKTHTKVEPKTSDKTHTCPPCPAPELLGGPSVFLFPPKPKDTLMISRTPEVTCVVVDVSHEDPEVKFNWYVDGVEVHNAKTKPREEQYNSTYRVVSVLTVLHQDWLNGKEYKCKVSNKALPAPIEKTISKAKGQPREPMVFDLPPSREEMTKNQVSLWCMVKGFYPSDIAVEWESNGQPENNYKTTPPVLDSDGSFFLYSKLTVDKSRWQQGNVFSCSVMHEALHNHYTQKSLSLSPGKSGSETPGTSESATPESGGGEVQLVESGGGLVQPGGSLRLSCAASGFNISYSSIHWVRQAPGKGLEWVAYISSYYGYTYYADSVKGRFTISADTSKNTAYLQMNSLRAEDTAVYYCARAHYFPWAGAMDYWGQGTLVTVSSGGGGSDIQMTQSPSSLSASVGDRVTITCRASQSVSSAVAWYQQKPGKAPKLLIYSASSLYSGVPSRFSGSRSGTDFTLTISSLQPEDFATYYCQQYYWPITFGQGTKVEIK", "TOPFLASH % Wnt Maxima": 63},
      {"binder": "CM0126 (FZD Diabody-Fc-LRP Diabody; paratopes 5016; 2539, 2542) (bispecific antibody) chain 1: MNLLLILTFVAAAVAEFEVQLVESGGGLVQPGGSLRLSCAASGFNIHSSSIHWVRQAPGKGLEWVAATYSSFGSITYADSVKGRFTISADTSKNTAYLQMNSLRAEDTAVYYCARYHHPFGYALDYWGQGTLVTVSSGGGGSDIQMTQSPSSLSASVGDRVTITCRASQSVSSAVAWYQQKPGKAPKLLIYSASSLYSGVPSRFSGSRSGTDFTLTISSLQPEDFATYYCQQGVYLFTFGQGTKVEIKLEDKTHTKVEPKSSDKTHNCPPCPAPELLGGPSVFLFPPKPKDTLMISRTPEVTCVVVDVSHEDPEVKFNWYVDGVEVHNAKTKPREEQYNSTYRVVSVLTVLHQDWLNGKEYKCKVSNKALPAPIEKTISKAKGQPREPQVYTLPPIRELMTSNQVSLSCAVKGFYPSDIAVEWESNGQPENNYKTTPPVLDSDGSFFLVSKLTVDKSRWQQGNVFSCSVMHEALHNHYTQKSLSLSPGKSGSETPGTSESATPESGGGEVQLVESGGGLVQPGGSLRLSCAASGFNISSYYIHWVRQAPGKGLEWVASIYSSYGYTSYADSVKGRFTISADTSKNTAYLQMNSLRAEDTAVYYCARTVRGSKKPYFSGWAMDYWGQGTLVTVSSGGGGSDIQMTQSPSSLSASVGDRVTITCRASQSVSSAVAWYQQKPGKAPKLLIYSASSLYSGVPSRFSGSRSGTDFTLTISSLQPEDFATYYCQQYSWGPFTFGQGTKVEIK chain 2: MNLLLILTFVAAAVAEFEVQLVESGGGLVQPGGSLRLSCAASGFNIHSSSIHWVRQAPGKGLEWVAATYSSFGSITYADSVKGRFTISADTSKNTAYLQMNSLRAEDTAVYYCARYHHPFGYALDYWGQGTLVTVSSGGGGSDIQMTQSPSSLSASVGDRVTITCRASQSVSSAVAWYQQKPGKAPKLLIYSASSLYSGVPSRFSGSRSGTDFTLTISSLQPEDFATYYCQQGVYLFTFGQGTKVEIKLEDKTHTKVEPKTSDKTHTCPPCPAPELLGGPSVFLFPPKPKDTLMISRTPEVTCVVVDVSHEDPEVKFNWYVDGVEVHNAKTKPREEQYNSTYRVVSVLTVLHQDWLNGKEYKCKVSNKALPAPIEKTISKAKGQPREPMVFDLPPSREEMTKNQVSLWCMVKGFYPSDIAVEWESNGQPENNYKTTPPVLDSDGSFFLYSKLTVDKSRWQQGNVFSCSVMHEALHNHYTQKSLSLSPGKSGSETPGTSESATPESGGGEVQLVESGGGLVQPGGSLRLSCAASGFNISYSSIHWVRQAPGKGLEWVAYISSYYGYTYYADSVKGRFTISADTSKNTAYLQMNSLRAEDTAVYYCARAHYFPWAGAMDYWGQGTLVTVSSGGGGSDIQMTQSPSSLSASVGDRVTITCRASQSVSSAVAWYQQKPGKAPKLLIYSASSLYSGVPSRFSGSRSGTDFTLTISSLQPEDFATYYCQQYYWPITFGQGTKVEIK", "TOPFLASH % Wnt Maxima": 52}
    ]}
  ]
}
